This note sets out measurements from patent US20150024453A1, “INTEGRATED PROCESS FOR DUAL BIOCATALYTIC CONVERSION OF CO2 GAS INTO BIO-PRODUCTS BY ENZYME ENHANCED HYDRATION AND BIOLOGICAL CULTURE” (CO2 SOLUTIONS INC., priority 2012, published 2015).

The nature of the series: Tests of carbonic anhydrase activity in carbonate absorption solutions. It is filed as biochemical. The text has this: The absorption solution that is fed to the enzymatic bicarbonate production unit may be a sodium carbonate solution having a sodium carbonate concentration between about 0.3M and about 2.4M (temperature being between about 30 t for a concentration of about 2.5M) or a potassium carbonate solution having a potassium carbonate concentration between about 1M and about 2M. Tests have confirmed that carbonic anhydrase has good activity in sodium carbonate between 0.3M and 0.5M and in potassium carbonate at 1.45M. Halophile-type carbonic anhydrase, with elevated resistance to salt, may be used for higher concentrations. As opposed to carbonates, bicarbonates are less soluble (two times less approximately) and, therefore, if precipitation occurs, it would be of bicarbonate salts rather than carbonate salts. Cooling the ion loaded solution exiting the enzymatic CO2 capture unit may also encourage precipitation, as the solubility of bicarbonates and carbonates would be lowered. For sodium bicarbonate, temperature may be carefully adjusted since below about 30° C., a solution at 2.5M would not be soluble. The following Solubility Table may be used to set, adjust or control the carbonate or bicarbonate concentration as well as temperature in the enzymatic bicarbonate production and CO2 capture unit: […]

On to carbonic anhydrase, for which the enzyme activity entry by setting is: (in potassium carbonate at 1.45M) “good activity”; (in sodium carbonate between 0.3M and 0.5M) “good activity”.
